Source: patent US20120324606A1

How the values were obtained:
[1] = molecular target: BBMV proteins (receptor binding sites) in brush border membrane vesicles from European corn borer (ECB; Ostrinia nubilalis) larval midgut; test: heterologous competition: unlabeled Cry1Be against 0.5 nM 125I Cry1Ab on ECB BBMVs
[2] = molecular target: BBMV proteins (receptor binding sites) in brush border membrane vesicles from European corn borer (ECB; Ostrinia nubilalis) larval midgut; test: heterologous competition: unlabeled Cry1Be against 0.5 nM 125I Cry1Ab on ECB BBMVs; reference is homologous Cry1Ab
[3] = molecular target: BBMV proteins (receptor binding sites) in brush border membrane vesicles from fall armyworm (FAW; Spodoptera frugiperda) larval midgut; test: homologous competition: unlabeled Cry1Be against 0.5 nM 125I Cry1Be on FAW BBMVs
[4] = molecular target: BBMV proteins (receptor binding sites) in brush border membrane vesicles from fall armyworm (FAW; Spodoptera frugiperda) larval midgut; test: heterologous competition: unlabeled Cry1Be against 0.5 nM 125I Cry1Ab on FAW BBMVs
[5] = molecular target: BBMV proteins (receptor binding sites) in brush border membrane vesicles from fall armyworm (FAW; Spodoptera frugiperda) larval midgut; test: heterologous competition: unlabeled Cry1Be against 0.5 nM 125I Cry1Ab on FAW BBMVs; reference is homologous Cry1Ab

B1: Cry1Be insecticidal protein (purified truncated Cry toxin) (ligand)
chain: IEDSLCIAEGNNIDPFVSASTVQTGINIAGRILGVLGVPFAGQIASFYSFLVGELWPRGRDPWEIFLEHVEQLIRQQVTENTRDTALARLQGLGNSFRAYQQSLEDWLENRDDARTRSVLYTQYIALELDFLNAMPLFAIRNQEVPLLMVYAQAANLHLLLLRDASLFGSEFGLTSQEIQRYYERQVEKTREYSDYCARWYNTGLNNLRGTNAESWLRYNQFRRDLTLGVLDLVALFPSYDTRVYPMNTSAQLTREIYTDPIGRTNAPSGFASTNWFNNNAPSFSAIEAAVIRPPHLLDFPEQLTIFSVLSRWSNTQYMNYWVGHRLESRTIRGSLSTSTHGNTNTSINPVTLQFTSRDVYRTESFAGINILLTTPVNGVPWARFNWRNPLNSLRGSLLYTIGYTGVGTQLFDSETELPPETTERPNYESYSHRLSNIRLISGNTLRAPVYSWTHRSADRTNTISSDSITQIPLVKSFNLNSGTSVVSGPGFTGGDIIRTNVNGSVLSMGLNFNNTSLQRYRVRVRYAASQTMVLRVTVGGSTTFDQGFPSTMSANESLTSQSFRFAEFPVGISASGSQTAGISISNNAGRQTFHFDKIEFIPITAT
modifications: ^125I iodination (Iodo-Beads) in the radiolabeled form only; sites not stated
B1 gave an IC50 [1] of 40 nM, a fold higher concentration for 50% displacement, against Cry1Ab [2] of 80 fold and an IC50 [3] of 2 nM. For the same binder, the IC50 [4] was 300 nM and the fold greater concentration for 50% displacement, against Cry1Ab [5] was 1000 fold.
